Data on one molecule can be found in US9505841B2, “Use of an anti-Ang2 antibody” (Samsung Electronics Co., Ltd., priority 2013, dated 2016).

For series [1], the system named is blood vessels of normal mice. The series is described as follows: Vascular toxicity in normal mice. The format is in vivo, mouse. As to conditions: C57BL/6, 5 mg/kg i.p. solely or with 20 ug Ang2, every three days, 6 times. As for the experimental part: The vascular toxicity of antibody 10D6 was tested.
In particular, 5 mg/kg of antibody 10D6 was administered to normal 6-week old C57BL/6 mice (Jackson Laboratory) solely or combined with 20 ug of Ang2 via an intraperitoneal injection every three days a total of 6 times, and then, the weight of the mice was measured. After 20 days, various tissues including thyroid, parathyroid, and adrenal gland were removed from the mice, and frozen sections were obtained therefrom. The frozen sections were immunostained using hamster anti-CD31 antibody (1:200, Millipore), and the changes were observed. A group administered with 20 ug of Ang2 solely was used for comparison.

The subject of series [2] is metastasis of lung cancer cells to near lymph nodes. The series is described as follows: LLC tumor metastasis to inguinal lymph nodes. As to conditions: 10 mg/kg i.p., five administrations, compared to Fc- or 4H10-treated group. The format is in vivo, mouse. As for the experimental part: To see the degree of tumor metastasis to near lymph nodes when treated with antibody 10D6, referring to the method of Example 14, LLC tumor cells were subcutaneously injected into mice. When the size of tumors reached 50˜100 mm^3, anti-Ang2 antibody 10D6 was injected at the concentration of 10 mg/kg via an intraperitoneal injection three times a week and the size of the tumors was measured. After administering the antibody five-times, inguinal lymph nodes were separated, and the obtained tissue sections were immunostained using rabbit anti-LYVE-1 antibody (1:200, Millipore) and mouse pan-Cytokeratin antibody (1;200, Abcam).
For comparison, the same experiment was performed to a control group treated with Fc of IgG1 and a comparative group treated with antibody 4H10 (refer to Example 3).

The test system of another series is HUVEC monolayer. The series is described as follows: In vitro vascular permeability assay (FITC-dextran). As to conditions: 200 ng/ml Ang1 alone or 200 ng/ml Ang2 + 1 ug/ml 10D6. The format is cell-based, human. As for the experimental part: To see the cell permeability suppression effects of antibody 10D6, in vitro vascular permeability assay kit (Millipore) was employed. HUVEC (ATCC) cells (5×10^4) were added to a collagen-coated transwell and cultured for 2 days to prepare a confluent monolayer. It was treated with 200 ng/ml of Ang2 or 200 ng/ml of Ang1 (R&D systems) alone, or 200 ng/ml of Ang2 and 1 ug/ml of antibody 10D6, pre-incubated for 30 min. and then, treated with 100 ng/ml of LPS (Lipopolysaccharide; Sigma) or 100 ng/ml TNF-a (R&D systems) to induce the permeability of HUVEC monolayer. LPS or TNF-a weakens binding between HUVEC cells to form a gap therebetween, thereby increasing the migration of materials in the HUVEC monolayer. After 6-hour incubation for the LPS treatment group and 22-hour incubation for the TNF-a group, the upper chamber was treated with FITC-dextran (Millipore) and incubated for 18 min. The fluorescence of FITC-dextran migrated to the lower chamber was measured at 485/535 nm (Ex/Em) setting using an Envision 2104 multilabel Reader (Perkinelmer).

Series [3] deals with blood vessels in tumor tissues. The experiment in a line: Immunofluorescence of blood vessels (CD31) and pericytes (PDGFR-β) in LLC tumors. The format is in vivo, mouse. As to conditions: LLC tumors of Example 14; compared to Fc- or 4H10-treated tumors. An excerpt: To examine changes in blood vessels in tumor tissues after treated with antibody, frozen sections were obtained and subjected to immunofluorescence staining using a blood vessel specific marker, CD31 and a pericyte specific marker, PDGFR-β.
In particular, the tumor tissues obtained from Example 14 were frozen using OCT compound (Sakura Finetek), and frozen sections were obtained therefrom using cryostat (Leica). The obtained tumor frozen sections were blocked with 0.3% TBST (TBS mixed with 0.3% Triton X-100) buffer supplemented with 5% goat serum (Jackson Immunoresearch) for one hour. To the blocking buffer, hamster anti-CD31 antibody (1:200, Millipore) and rat anti-PDGF receptor beta antibody (1:200, eBioscience) were added, and the frozen sections were added thereto to be allowed to react for 3 hours. the reacted product was washed with TBS three times, and then, the blocking buffer mixed with cy3-conjugated anti-hamster IgG antibody and FITC-conjugated anti-rat IgG antibody (1:1,000, Jackson Immunoresearch) was added the frozen sections to be allowed to react for 2 hours. After washing with TBS three times, the frozen sections were covered with coverslip (Marenfield) using Fluorescence mounting medium (DAKO). The stained tumor frozen sections were observed using LSM5 (Zeiss) confocal microscope. […]

A further series addresses T1, Ang2:Tie2 receptor (Homo sapiens, UniProt O15123).
T1 construct: purchased R&D systems (Tie2-Fc)
The experiment in a line: ELISA for formation of 10D6-Ang2-Tie2 complex. The conditions noted are these: Tie2-Fc coated; 0.25 ug/ml Ang2, 2 ug/ml antibody. The format is binding. As for the experimental part: A 96-well MaxiSorp™ flat-bottom plate (Nunc) was coated with 4 ug/ml of Tie2-Fc (R&D systems) or BSA (Sigma). Then, the plate was washed five times with 0.05% (v/v) Tween-20-containing PBS (Phosphate Buffer Saline) and blocked with 1% (v/v) BSA (Bovine serum albumin; Sigma)-containing PBS at a room temperature for 2 hours. 0.25ug/ml of Ang2 and 2ug/ml of antibody 10D6 were added to each well of the plate, which was allowed to react at a room temperature for 2 hours and then washed five times with PBST. After that, an anti-mouse IgG antibody (Sigma) conjugated with HRP diluted in 1% (v/v) BSA-containing PBS at a ratio of 1:5,000 (v/v) was added in an amount of 100 ul to each well to react at a room temperature for 1 hour and then, the plate was washed five times with PBST. Lastly, 100 ul (microliter) of TMB substrate (Cell Signaling) was added to each well of the plate to induce color development for 3 min. and then, the reaction was ceased by the addition of 100 ul of Stop solution (Cell Signaling) and OD450 values were measured on a plate reader (Molecular Devices).
(ELISA stands for enzyme-linked immunosorbent assay.)

T1 sequence (O15123 19-496): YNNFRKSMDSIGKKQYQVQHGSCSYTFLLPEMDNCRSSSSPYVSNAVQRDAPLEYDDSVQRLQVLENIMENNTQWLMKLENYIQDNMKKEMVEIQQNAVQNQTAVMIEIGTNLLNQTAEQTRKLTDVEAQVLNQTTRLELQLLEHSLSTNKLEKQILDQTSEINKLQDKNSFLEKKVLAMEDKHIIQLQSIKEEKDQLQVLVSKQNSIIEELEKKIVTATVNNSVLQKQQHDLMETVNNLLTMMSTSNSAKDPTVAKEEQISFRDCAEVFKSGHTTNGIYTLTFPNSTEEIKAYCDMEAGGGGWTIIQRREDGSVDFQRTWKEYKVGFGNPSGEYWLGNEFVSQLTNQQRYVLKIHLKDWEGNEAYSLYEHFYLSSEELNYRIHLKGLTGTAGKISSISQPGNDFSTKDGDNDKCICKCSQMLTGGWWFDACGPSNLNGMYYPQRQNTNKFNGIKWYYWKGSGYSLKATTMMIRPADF
T1 sequence (Q02763 23-745 partner limits assumed): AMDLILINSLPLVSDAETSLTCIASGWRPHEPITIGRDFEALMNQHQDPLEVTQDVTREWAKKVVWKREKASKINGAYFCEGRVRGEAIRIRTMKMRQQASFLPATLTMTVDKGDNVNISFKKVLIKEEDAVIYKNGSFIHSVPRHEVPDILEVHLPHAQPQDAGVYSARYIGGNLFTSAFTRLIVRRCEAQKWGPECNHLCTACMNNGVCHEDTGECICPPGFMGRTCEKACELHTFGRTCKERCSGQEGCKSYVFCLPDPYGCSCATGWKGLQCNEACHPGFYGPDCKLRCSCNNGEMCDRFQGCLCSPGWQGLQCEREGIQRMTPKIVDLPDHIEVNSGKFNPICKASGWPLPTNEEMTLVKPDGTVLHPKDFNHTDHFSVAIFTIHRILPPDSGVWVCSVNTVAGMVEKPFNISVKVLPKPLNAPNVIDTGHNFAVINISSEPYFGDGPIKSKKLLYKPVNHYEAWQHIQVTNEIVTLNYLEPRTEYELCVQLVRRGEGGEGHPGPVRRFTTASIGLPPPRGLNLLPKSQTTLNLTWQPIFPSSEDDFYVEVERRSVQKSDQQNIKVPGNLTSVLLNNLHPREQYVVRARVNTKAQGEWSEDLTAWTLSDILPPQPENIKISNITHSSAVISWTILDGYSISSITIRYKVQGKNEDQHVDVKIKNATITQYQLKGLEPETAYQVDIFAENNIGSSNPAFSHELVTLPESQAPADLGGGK

B1: 10D6: mouse anti-Ang2 monoclonal antibody from hybridoma KCLRF-BP-00295; heavy chain variable region SEQ ID NO: 7, light chain variable region SEQ ID NO: 9 (antibody, V domains shown)
VH: DVQLQESGPGLVKPSQSLSLTCTVTGYSITSDYAWNWIRQFPGNKLEWMGYINYSGNTDYNPSLKSRSSITRDTSKNQFFLQLNSVTTGDTATYYCARGNFEGAMDYWGQGTSVTVSS
VL: SIVMTQTPKFLLVSAGDRVTITCKASQSVSNDVAWYQQKPGQSPKLLIYYASNRYPGVPDRFTGSGYGTDFTFTISTVQAEDLAVYFCQQDYSSPWTFGGGTKLEIK
modifications: Synthetic (Heavy chain variable region of an anti-Ang2 antibody); Synthetic (Light chain variable region of anti-Ang2 antibody)
For the molecule B1, the “weight of normal mice” value in series [1] is on record as “neither abnormal weight loss/gain”. For the same molecule, the “vascular toxicity (morphology of blood vessels, CD31 staining)” value in series [1] (after 20 days) is “no vascular toxicity”. In series [2], the “number of metastatic lung cancer in lymph nodes” value is “decreased” and the “size of lymph nodes” value is on record as “decreased”. The “vascular permeability increased by LPS” value in the series on HUVEC monolayer (100 ng/ml LPS, 6 hour) was “decreased to the control level”. For the same molecule, the “vascular permeability increased by TNF-a” value in the series with HUVEC monolayer (100 ng/ml TNF-a, 22 hour) is given as “decreased to the control level”. The “blood vessel density and vascular normalization in tumor” value in series [3] is “decreases the density of blood vessels in tumor and induces vascular normalization”. Further, in the series with Ang2:Tie2 receptor, the “formation of complex with Ang2 bound to Tie2” value is “formed a complex”.
